In the NTF2 design screens of Basanta et al. (2020) one finds protease stability score data, which are given here for 18 sequences.

The nature of this data set: protease stability score; higher = more stable; yeast display proteolysis, trypsin and chymotrypsin.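 Also: relative to predicted unfolded state with 0 unfolded-like and 1 meaning tenfold more protease.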
Consider “DESEEDVEYFVKILDRAWATGDEDTLRRLLDPHYRVHVDGKDIIGREEVVRLFKEMGWELRFHRDHIHVQGDKMFIHGTLRLIYNGRIEEREIHLDVNKINGRWLNERVEIR”, for which the protease stability score is 1.81.

Take “SEDERDAKFATDLVLHLLRTGDEEKLLQLLDPNVRVEQGNKDWHGREDWHDFMEIMGIDHMTIHHVELRVVNGRVESHVDIRLLVNGRDDDVQLVLFMKKVDGRWRVTSLRFIYR”: the protease stability score worked out at 1.74.

With “SEDEKFLQIALHLMMHWINTGDEDFLREMADPHVRLHDGDKEHHGWKVIEHLFHYYGVDHITVKRYTIIGDKVKTDGELRVGDKRFRILYETVKIDGRWHVHKIEIR”, the protease stability score was 1.43.

In the case of “DEENEILRELHRELVEAWLTGDEELLRRLHDPDVRVHIGDKDLVGMEQMIEDIRFWLRRFDHLRIHIHRVRAINGVIHVDGELQLFQGDKSIRHQVIIELEVVNGRIKNTKFSTI”, the protease stability score was 1.4.

The sequence “DEDTKHDEEMFRLVLHLLRTGDEEKLTELADPNVRLEVDIDGRRDTYHGREEMLKWLQELLKRYKNMTIKVHRVSVVNGKAHMDGITKVGDKEFKELRIWVVIDGKIRTIKIEIL” gave a protease stability score of 2.27.

“EEEKEHLTHMAKLFHDLTQTGDEHLFNHLADPHVKIDVHIGDKDLHFHGREEFLWWILEIIEQWRIEFDLRDTIPVNGKVHVKTDIKINVNGREHRIETRLHLVIVNGKLKESEIRVS” registered a protease stability score of 1.69.

“TEDQEQAEEHFREEIHHWRTGDEDQLRRLMDPNTRIEIGDKVLHGREHAELFLRRYKGLKIDRFEIRHRDHQGDYVILHTHFRGEVNGRDFENTVQLVVLKVDGRWFLKYIRVE” came in with a protease stability score of 1.64.

With “DEITRELKHIFEEVIRAILTGDWRRLHHLLDPRVRSKFEFENRHVDLHGMETVLHWMERWSQELRVEDFHLNDFRVIGDYIVLDGRVQNRQGDKKIDVRVELIVFVVNGKVTELRETSR”, the protease stability score was determined as 1.17.

In the case of “HEDERHLHEIIKRWFEALLTGDEHVLERLLDPNARIDIDGREFIGMEKFAHDISRIKNMQIKHHHIKHVRYVDGVMHWHGQRHGVVNGQEKNVEVIINLFVYDGRFKSMHIKDD”, the protease stability score was determined as 1.06.

In turn, “SELEHLTEEVAERVLRVLLTGNEHWLDRLLDPHVRLHVNGQDFHGRENVKRWMHELGVDHREIEIEDYRSINGVFIVWGHIRIHQGEKEIKFKSEHIFVVFNGKMQSMEIRIL” registered a protease stability score of 1.58.

The sequence “DETQELAEEIVRKMIENWLTGNEEELHKMADPHVRVHINGVDLHGREVWEKWVHDELEKIPGIRREFELKRLEIYGDYIDIDGILILTFNGRKHTHKVRIHLHIVDGKLHRLEIRNK” had a protease stability score of 1.28.

For “DEHHEIVRSMSELLTHLHLTGDEEKLSRMADPRVRLDVNGQWFHGREQWEKAFEDFEREMGAKHVKVDHVHVQGNKIILHFHVNVDGVHITVEFDIIIVDGRLKREHIRLK”, the protease stability score came to 0.621.

The sequence “SDDHHKAKLFNEWFKQHFDTGDEHLYKRLADPNVRIHINGVDIVGRELATHLLSHIRITHFEVHDHKVQGNKVHTDGRVHGDVNGVEERVYVELVIEKIDGRWLNHQEIWV” registered a protease stability score of 0.332.

Regarding “DEEKHELEERVRLHIERWKTGDEDTLRHYADPDVRTHIDVGDKKFNYHGREEIVQAYKHLLDQLGVKHSEIDRSTAVNGVVHLHMTLRFDGVRMEWRIDIWIIDGRTKTIHIEIRHR”, the protease stability score was found to be 0.942.

“DETREIAIKMIELWIHAVKTGDEDRMTELLDPNALLIIGDKKIHGRENLLRFWKRIDHHHLRHIEIKEITFFNGQVEDDGIVEEELRVNGREFEIDSRVLYILKKVDGRWIMRTIEVK”: the protease stability score came out at 1.88.

“SEDHHSLRNAWELLIKSIKTGDENLMERFADPSTKSRIDGVELVGREEVVHYFMQLRVKDVKLDEVDVVDGRVVIDGTLHGEYNGREETHKVRLFINKVDGQWILHSVEFH”: the protease stability score stood at 0.938.

In the case of “DEETQNVRTILEEFVHDFETGDERLMHRYLDPNVRIDWNGRDYHGRETMFQMIRELSDKIKNIRIRIEHIDIINGVIIIHGDLHYNGKDVKTTLYFLKVNGRWLITRLEYK”, the protease stability score amounted to 1.39.

Turning to “SEEEKRAEEWVKLMIHAHLTGDFHLLERFADPHTRVDFNGVENIGMEEVSRWIKEWRRRIDHTEIRLHRIRLQGDKVHVKTELILEYDGRTEFIDSRINLIVINGVLKELRVTLH”, the protease stability score was determined as 1.38.
